Source: US8697386B2, “Methods and compositions for modulating hepsin activation of macrophage-stimulating protein” (Genentech, Inc., priority 2009, dated 2014)

Legend:
[1] = target: T1, cell surface expressed hepsin in LnCap-34 cells (Homo sapiens, UniProt P05981); assay: Pro-MSP activation by cell surface expressed hepsin in LnCap-34 cells; assay type: cell-based; details: 1 μM inhibitor, 15 minutes preincubation, 125I-pro-MSP 25 μg/ml, 3 hours, 37° C.
T1 construct: expressed in transfected cells; host or cells: LnCaP-34 cells
T1 sequence (P05981 whole entry): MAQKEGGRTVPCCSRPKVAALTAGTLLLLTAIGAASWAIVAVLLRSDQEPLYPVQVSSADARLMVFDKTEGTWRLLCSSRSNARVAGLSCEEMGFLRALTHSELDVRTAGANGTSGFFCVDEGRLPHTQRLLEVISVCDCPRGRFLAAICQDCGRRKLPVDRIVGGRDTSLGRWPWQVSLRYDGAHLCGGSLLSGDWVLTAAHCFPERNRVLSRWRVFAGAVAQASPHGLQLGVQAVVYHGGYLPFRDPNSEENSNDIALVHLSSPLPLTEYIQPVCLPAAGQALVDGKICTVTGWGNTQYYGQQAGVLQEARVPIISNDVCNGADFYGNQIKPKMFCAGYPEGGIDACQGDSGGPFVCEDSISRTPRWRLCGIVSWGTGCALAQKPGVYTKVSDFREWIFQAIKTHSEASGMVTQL
Description: Confluent LnCap-34 cells cultured in 24-well plates were washed with serum-free RPMI-1640 medium and were incubated either alone or with different anti-hepsin inhibitors (1 μM of anti-hepsin antibody Fab25/1 μM of KD1/1 μM of Ac-KQLR-cmk (‘KLQR” disclosed as SEQ ID NO:10)) in serum-free RPMI-1640 medium for 15 minutes at 37° C. prior to addition of 125I-labeled pro-MSP (25 μg/ml). After incubation for 3 hours at 37° C., aliquots were removed and analyzed by SDS-PAGE (4-20% gradient gel) (Invitrogen, Carlsbad, Calif.) followed by exposure to X-ray films.

bone marrow macrophages = assay: Inhibition of nitric oxide (NO) synthesis in bone marrow macrophages; assay type: cell-based, mouse; details: pro-MSP 10 ng/ml mixed with hepsin 1 nM and Fab25 500 nM, 24 hours, LPS
Description: Inhibition of NO synthesis by mature MSP: Bone marrow cells obtained from collected mouse femurs were pipetted to a single-cell suspension and then spun down. Red blood cells were lysed by incubation with erythrocyte lysis buffer for 5 minutes at room temperature. Cells were then suspended in macrophage differentiation medium (DMEM with glutamine containing 10% FBS, Pen/Strep and 50 ng/ml recombinant mCSF-1). Cells were then plated onto sterile 24-well non-tissue culture dishes. Medium was changed the next day and subsequently every 2 days. After 6 days in culture, the macrophages were mature and these mature cells were washed in serum-free DMEM and further incubated for 2 hours. Different reactions (total volume 300 μL) as indicated in the figure consisting of recombinant MSP (10 ng/ml), pro-MSP (10 ng/ml), hepsin (1 nM) and Fab25 (500 nM) were added to the respective wells and cultured for 24 hours at 37° C. in a tissue culture incubator. NO production was quantified using Griess reaction (Molecular Probes) according to manufacturer's recommendation.

peritoneal macrophages = assay: Peritoneal macrophage chemotaxis assay; assay type: cell-based, mouse; details: pre-treatment with inhibitor
Description: Peritoneal macrophage chemotaxis and morphology change assay: Murine peritoneal resident macrophages were obtained from C57BL/6 mice by washing the peritoneal cavity with 15 ml per mouse of serum-free RPMI-1640 medium. Cells were washed and resuspended in RPMI-1640 medium containing 25 mM Hepes at a concentration of 1×10^6 cells·mL^−1. The macrophage chemotaxis assay was performed using a QCM chemotaxis assay kit with a pore size of 5 μm (Millipore). One hundred microliters of the peritoneal macrophage suspension (i.e. 10^5 cells) were added to the upper wells of the Chemotaxis cells. The bottom wells were filled with RPMI-1640 medium containing purified pro-MSP either alone or hepsin-treated at 37 C for 2 hours. The recombinant active form of human MSP (R&D Systems) was used as a positive control. After incubation at 37 C for 4 hours, the cells on the upper surface of the membrane were wiped off with a cotton swab and the migrated cells were detached using detachment buffer as per manufacturer's recommendations. Aliquots from different wells were incubated with a mixture of lysis buffer and CYPRO dye for 15 minutes. Migration was quantified by measuring the fluorescence using a microplate reader (Spectramax-M5, Molecular devices, Sunnyvale, Calif.) at an excitation wavelength of 480 nm and emission wavelength of 520 nm.

B1: Fab25: anti-hepsin antibody Fab that blocks hepsin activation of pro-MSP (antibody, V domains shown)
VH: EVQLVESGGGLVQPGGSLRLSCAASGFNFSYSYMHWVRQAPGKGLEWVASIYSYYGSTYYADSVKGRFTISADTSKNTAYLQMNSLRAEDTAVYYCARSDSWSYKSGYTQKIYSKGLDYWGQGTLVTVSS
VL: DIQMTQSPSSLSASVGDRVTITCRASQSVSSAVAWYQQKPGKAPKLLIYSASSKGVPSRFSGSRSGTDFTLTISSLQPEDFATYYCQQYYSSYYLLTFGQGTKVEIK
- blocking of pro-MSP proteolytic cleavage by cell surface hepsin [1]: effectively blocked
- effect of anti-hepsin antibody on attenuation of NO production by hepsin-activated MSP (bone marrow macrophages): did not inhibit robust production of nitric oxide
- effect of anti-hepsin antibody on attenuation of NO production by hepsin-activated MSP (bone marrow macrophages; listed as anti-hepsin antibody): completely inhibited
- effect of anti-hepsin inhibitor pre-treatment on migration of macrophages induced by hepsin-treated pro-MSP (peritoneal macrophages): marked reduction
